From paper PMC5193468

T1: His-MBP-Lin28TT (Homo sapiens, UniProt Q9H9Z2 32-187)
T1 sequence: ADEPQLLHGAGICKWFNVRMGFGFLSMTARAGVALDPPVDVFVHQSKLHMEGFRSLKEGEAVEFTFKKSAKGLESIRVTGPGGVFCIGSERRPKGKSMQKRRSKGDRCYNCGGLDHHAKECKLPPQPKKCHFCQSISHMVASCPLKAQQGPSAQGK


Assays:
His-MBP-Lin28TT [1] = target: T1, His-MBP-Lin28TT; test: fluorescence anisotropy; 50 uM ZnCl2; FA: 20 nM 5'-fluorescein RNA, 20 mM Tris-HCl pH 7.5, 50-750 mM NaCl (100 mM for the main miR-363 Kd), 10 mM beta-mercaptoethanol, 50 uM ZnCl2, 0.01% Tween 20, 2
His-MBP-Lin28TT [2] = target: T1, His-MBP-Lin28TT; test: fluorescence anisotropy; 100 mM NaCl; 50 uM ZnCl2; FA: 20 nM 5'-fluorescein RNA, 20 mM Tris-HCl pH 7.5, 50-750 mM NaCl (100 mM for the main miR-363 Kd), 10 mM beta-mercaptoethanol, 50 uM ZnCl2, 0.01% Tween 20, 2
His-MBP-Lin28TT [3] = target: T1, His-MBP-Lin28TT; test: fluorescence anisotropy; 250 mM NaCl; 50 uM ZnCl2; FA: 20 nM 5'-fluorescein RNA, 20 mM Tris-HCl pH 7.5, 50-750 mM NaCl (100 mM for the main miR-363 Kd), 10 mM beta-mercaptoethanol, 50 uM ZnCl2, 0.01% Tween 20, 2
His-MBP-Lin28TT [4] = target: T1, His-MBP-Lin28TT; test: fluorescence anisotropy; 500 mM NaCl; 50 uM ZnCl2; FA: 20 nM 5'-fluorescein RNA, 20 mM Tris-HCl pH 7.5, 50-750 mM NaCl (100 mM for the main miR-363 Kd), 10 mM beta-mercaptoethanol, 50 uM ZnCl2, 0.01% Tween 20, 2
His-MBP-Lin28TT [5] = target: T1, His-MBP-Lin28TT; test: fluorescence anisotropy; 750 mM NaCl; 50 uM ZnCl2; FA: 20 nM 5'-fluorescein RNA, 20 mM Tris-HCl pH 7.5, 50-750 mM NaCl (100 mM for the main miR-363 Kd), 10 mM beta-mercaptoethanol, 50 uM ZnCl2, 0.01% Tween 20, 2

Binder	Kd (His-MBP-Lin28TT [1])	Kd (His-MBP-Lin28TT [2])	Kd (His-MBP-Lin28TT [3])	Kd (His-MBP-Lin28TT [4])	Kd (His-MBP-Lin28TT [5])
CGGGUCUAUGAUACCACCCGGUACAGGAG (structured_RNA) [let-7g 29-57]	54.1 ± 4.2 nM	–	–	–	–
GAUGCAAUUUUGAUGAGUAUCAUAGGAG (structured_RNA) [miR-363 19-46]	–	16.6 ± 1.9 nM	6.6 ± 0.9 nM	8 ± 0.8 nM	12.4 ± 1.1 nM
